{"source": "paper PMC3078890", "about": "“Sponge non-metastatic Group I Nme gene/protein - structure and function is conserved from sponges to humans” (BMC Evolutionary Biology, 2011)", "proteins": {"B1": {"name": "sponge NmeGp1Sd protein (Suberites domuncula Group I Nme), recombinant (natural protein, UniProt Q5DIW9 1-151, looked up)", "chain": "MTTERTYIMIKPDGVQRGLMGDIIKRFEQKGFKMVAMKFMQPSEKLLSEHYADLSKKPFFPGLVKFMATSPVCCMVWEGQGAVATGRQMLGETDPAKSKPGTIRGDFCIHIGRNICHGSDSVESANKEIALWFKPEELVDWTPTEQQWIYE", "notes": "NmeGp1Sd (formerly Nm23-SD1), Group I Nme / nucleoside diphosphate kinase of the marine sponge Suberites domuncula; cDNA cloned into pET15b (NdeI/BamHI) with primers from the ATG start codon to the stop codon; Cloned downstream of the thrombin site of pET15b; residues of the vector may remain at the N-terminus after cleavage; also called Nm23-SD1; not shown: His6, N-terminal, cleaved"}}, "molecular_target": "the molecule itself", "experiment": "cross-linking; 8 ug protein in PBS at room temperature, 25 mM glutaraldehyde for 5 min, quenched with 0.2 M Tris-HCl pH 7.5; 12.5% SDS-PAGE, Coomassie staining"}
{"protein": "B1", "values": [{"measurement": "stoichiometry N", "value": 6}]}
